Experimental data as given in patent publication US20020147306A1 (published 2002).
No end group written: not given here.

B1: GST-syntenin fusion protein (full length: residues 1-299) (other, mouse, UniProt O08992 1-299, looked up)
chain: MSLYPSLEDLKVDKVIQAQTAYSANPASQAFVLVDASAALPPDGNLYPKLYPELSQYMGLSLNEAEICESMPMVSGAPAQGQLVARPSSVNYMVAPVTGNDAGIRRAEIKQGIREVILCKDQDGKIGLRLKSIDNGIFVQLVQANSPASLVGLRFGDQVLQINGENCAGWSSDKAHKVLKQAFGEKITMTIRDRPFERTVTMHKDSSGHVGFIFKSGKITSIVKDSSAARNGLLTDHHICEINGQNVIGLKDAQIADILSTAGTVVTITIMPTFIFEHIIKRMAPSIMKSLMDHTIPEV
notes: range 1-299; also called full-length syntenin; GST fusion of full-length syntenin; not shown: glutathione S-transferase (GST) from vector pGEX4T2

What was measured:
ephrin B1 Val deletion [1] = target: T1, ephrin B1 Val deletion (UniProt P98172 28-346, limits assumed); assay: GST mix with lysates of transfected Cos-1 cells, anti-ephrin B1 immunoblot
T1 construct: whole, on cells; Tested from lysates of transfected Cos-1 cells; also called ephrin B1 Val deletion mutant; ephrin B1 lacking the C-terminal Val
T1 sequence (looked up): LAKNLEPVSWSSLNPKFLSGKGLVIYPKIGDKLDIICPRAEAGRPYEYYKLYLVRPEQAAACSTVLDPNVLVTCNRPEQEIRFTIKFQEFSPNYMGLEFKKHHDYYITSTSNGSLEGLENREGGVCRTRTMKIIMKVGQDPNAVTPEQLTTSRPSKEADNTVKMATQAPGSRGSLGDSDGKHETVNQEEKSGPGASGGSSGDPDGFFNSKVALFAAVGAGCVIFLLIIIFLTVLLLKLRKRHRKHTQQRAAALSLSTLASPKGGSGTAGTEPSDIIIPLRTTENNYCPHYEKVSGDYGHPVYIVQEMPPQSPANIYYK
Method: FIGS. 3A-C. FAP-1 PDZ5 and syntenin bind specifically to ephrin B1 in GST-mixes. Cos-1 cells were transiently transfected with either wild-type ephrin B1 (W. T.) or the ephrin B1 Val deletion (Val Δ) or were untransfected. Cell lysates were incubated with the GST fusion proteins as indicated and analyzed by immunoblotting with anti-ephrin B1 antibody. Immunoprecipitated ephrin B1 or ephrin B1 Val Δ were included as a positive control. FIG. 3A and FIG. 3B, GST-mixes with fusion proteins of FAP-1. C and D, GST-mixes with fusion proteins of syntenin.
(§1) Cos-1 cells were maintained in DMEM supplemented with 10% fetal bovine serum (FBS). Transient transfections were performed using Lipofectin reagent and Opti-MEM medium (Life Technologies Inc.) as outlined by the manufacturer. To reduce phosphorylation of ephrin B1 by binding to endogenously expressed EphB receptors or by stimulation with serum growth factors, transfected cells were transferred from 10 cm to 15 cm plates 24 h after transfection and serum starved in DMEM 0.5% FBS 12 h prior to cell lysis. Transfected cells were rinsed once in PBSA and lysed in PLC lysis buffer (5) with 10 μg/ml aprotonin, 10 μg/ml leupeptin, 1 mM sodium vanadate and 1 mM phenylmethylsulfonyl fluoride added. Immunoprecipitations were performed for 1 h at 4° C. using 1 μg anti-ephrin B1 antibody or 1 μg anti-IL-3 receptor a antibody with protein A-sepharose. […]

[2] = target: fluorescein-labelled NIpYYKV peptide; assay: fluorescence polarization, 25 nM fluorescein-labelled peptide, GST fusion titrated, 22 C
Method: (§2) FIGS. 5A and 5B. Fluorescence polarization analysis of GST-FAP-1 PDZ3, GST-FAP-1 PDZ5 and GST-syntenin binding to Fluorescein-labelled peptides corresponding to the C-terminus of ephrin B1. FIG. 5 A, Solutions containing the indicated final concentration of GST-FAP-1 PDZ3 ( ) or GST-FAP-1 PDZ5 ( ) fusion protein in mixtures containing 25 nM fluorescein-labelled NIYYKV peptide probe, 20 mM phosphate pH 7.0, 100 mM NaCl, and 2 mM dithiothreitol (DTT) were monitored for fluorescence polarization at 22° C. The GST-FAP-1 PDZ5 fusion protein was also measured for binding to the phosphorylated peptides, NIpYYKV ( ), NiYpYKV ( ) and NIpYpYKV ( ). […] FIG. 5B, A Binding of a GST fusion of full-length syntenin to the NIYYKV ( ), NIpYYKV ( ), and NIpYpYKV ( ) peptides as measured by fluorescence polarization.
(§3) Binding constant determination and peptide competition studies were carried out using fluorescence polarization on a Beacon 2000 Fluorescence Polarization System (Pan Vera, Wis.) equipped with a 100-μl sample chamber. Fluorescein-labeled probes were prepared through reaction of B ephrin C-terminal peptides with 5-(and-6-)-carboxyfluorescein, succinimidyl ester (Molecular Probes, Oreg.) and purified by reverse-phase HPLC. The authenticity of the fluorescein-labelled peptides were confirmed by mass spectroscopy. In the binding studies, the fluorescein-labelled peptide probe was dissolved in 20 mM phosphate pH 7.0, 100 mM NaCl, and 2 mM DTT to a concentration of 25 nM and a known quantity of GST- fusion protein added. The reaction mixtures were allowed to stand for 10 min at room temperature prior to each measurement. All fluorescence polarization measurements were conducted at 22° C.
(§4) Fluorescence polarization experiments measuring GST-syntenin fusion protein binding to fluorescein-labeled NIYYKV (SEQ. ID. NO. 10) and NIpYYKV (SEQ. ID. NO. 8) peptides yielded nearly identical binding curves (FIG. 5B).

[3] = target: fluorescein-labelled NIpYpYKV peptide; assay: as above
Method: as §2, §3, §4

ephrin B1 Val deletion [4] = target: T1, ephrin B1 Val deletion; assay: co-immunoprecipitation from co-transfected Cos-1 cells, anti-FLAG blot
Method: (§5) FIG. 6. Co-immunoprecipitation of syntenin-FLAG with ephrin B1. Cos-1 cells were co-transfected with either ephrin B1 and syntenin-FLAG or with the ephrin B1 Val deletion and syntenin-FLAG as indicated. Cell lysates were immunoprecipitated with antibodies against ephrin B1 or IL-3 receptor a or were treated with protein A sepharose only. Immunocomplexes were subjected to SDS-PAGE (10%) and blotted with anti-FLAG antibodies.
as §1

protein A sepharose = target: T2, protein A sepharose (UniProt P38507 37-477); assay: precipitation from Cos-1 cells co-transfected with ephrin B1 and syntenin-FLAG, anti-FLAG blot
T2 construct: Bead-only control in the co-immunoprecipitation; also called protein A sepharose alone
Method: as §5, §1

[5] = target: B1; assay: fluorescence polarization, 25 nM fluorescein-labelled peptide, GST fusion titrated, 22 C
Method: as §2, §3, §4

## B1
Ephrin B1 Val deletion [1]
  binding result: no binding
[2]
  Kd: 15.4 µM
[3]
  Kd: 151 µM

B2: syntenin-FLAG (other, mouse, UniProt O08992 1-299, looked up, not shown: small tags and cut ends)
chain: MSLYPSLEDLKVDKVIQAQTAYSANPASQAFVLVDASAALPPDGNLYPKLYPELSQYMGLSLNEAEICESMPMVSGAPAQGQLVARPSSVNYMVAPVTGNDAGIRRAEIKQGIREVILCKDQDGKIGLRLKSIDNGIFVQLVQANSPASLVGLRFGDQVLQINGENCAGWSSDKAHKVLKQAFGEKITMTIRDRPFERTVTMHKDSSGHVGFIFKSGKITSIVKDSSAARNGLLTDHHICEINGQNVIGLKDAQIADILSTAGTVVTITIMPTFIFEHIIKRMAPSIMKSLMDHTIPEV
notes: range 1-299; Co-expressed with ephrin B1 in Cos-1 cells
Ephrin B1 Val deletion [4]
  binding result: no binding
Protein A sepharose
  binding result: no binding

B3: fluorescein-labelled NIYYKV peptide (peptide)
peptide: NIYYKV
modifications: also: 5-(and-6-)carboxyfluorescein label, site not given here
notes: 25 nM probe in fluorescence polarization; also called unphosphorylated peptide probe
[5]
  Kd: 17.7 µM
